Experimental data: the nanobody polyreactivity screen of Harvey et al. (2022)

test: yeast display, Sf9 membrane polyspecificity reagent, FACS + sequencing; frameworks hold sequencing errors
Procedure, shortened: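 Polyreactivity labels are assigned by the sorting gate from which each nanobody was recovered. The gates were low and high (top ~1%), set on anti-HA fluorescence for expression and streptavidin fluorescence for reagent binding. Before sorting, galactose-induced (36–48 hours) yeast display cells were stained for 1 hour at 4 °C with 10% biotinylated, detergent-solubilized Sf9 membrane reagent.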

Sequence | polyreactivity (PSR sort gate)
QVQLVESGGGLVQAGGSLRLSCAASGRIFDVYAMGWYRQSPGKERELVAAISWSGSSTYYADSVKGRFTISRDTAKNTVYFQMNSLKPEDTAVYYCAADYPKTYTSKFNYWGQGTQVTVSS | high polyreactivity
QVQLVESGGGLVQAGGSLRLSCAASGITFNSYTMGWYRQAPGKERELVAAISDNGGRTFYADSVKGRFTISRDNAKNTVYLQMNSLKPEDTAVYYCAAVVYSEYYYWGQGTQVTVSS | low polyreactivity
QVHLVESGGGLVQAGGSLRLSCAAAGRTFSSYAMAWYRQAPWQERELVAAITSGGTTYYADSVKGRFTISRDNAKNTVDLQMNSLKAEDPAFYYCARRSYLYDSYLTKKKYYDYCGQGTQVTVSS | low polyreactivity
QVQLVESGGGLVQAGGSLRLSCAASGRTFWYYAMGWYRQAPGKERELVAAISYSGDGTYYADSVKGRVTISRDNAKNTVYLPMHSLKPEDTAVYYCAAEWYEPTLPTAWSEYEYWGQGTQVTVSS | high polyreactivity
QLQLVESGGGLVQAGGSLRLSCAASGSTFYTNAMGWYRQAPGKERELVAVITSRGGGTYYADSVKGRFTISRDNAKNTVYLQMNSLKPEDTAVYYCAAYPLVSWGRHGTKGDYWGQGTQVTVSS | low polyreactivity
QVQLVESGGGLVQAGGSLRLSCAASGRTFWYYTMGWYRQAPGKERELVAAITSGGSTYYADSVKGRFTISRDNAKNTVYLQMNSLKPEDTAVYYCAAYLYWDFTYYYALVDYWGQGTQVTVSS | high polyreactivity
QVQLVESGGGLVQAGGSLRLSCAASGRIFRIYTMVWYRQAPGKERELVAVINSSGGRTYYADSVKGRFTISRDNAQNTVYLQMNSLKPEDTAVYYCNAVFGGGTMDYWGQGTQVTVSS | high polyreactivity
QVQLQESGGGLVQAGGSLRLSCAASGNIVDADIMGWYRQAPGKERELVASITDGGSTNYADSEKGRFTICRDNAKNTVYLQMNSVKPEDTAVYYCAAMAYPDIPTSFDYDSEYFYWGQGTQVKVSS | low polyreactivity
QVQLVESGAGLVQAGGSLRLSFAASGRTFRGYAMGLYRQGPGKEREWVAAISSGGSTYYADSVKGRFTISRDNAKNTVSLQMYSLKPEDTAVYYCARAVGNYRTLEFDYWGQGTQVTVSS | low polyreactivity
QVQLVESGGCLVQAGGSLRLSSAASGSIFHAYAMGWYRQSPGKESELVAAITIDGSTNYADSVKGRFTISRDNAKNTVYLQMNSLKPEDTAVYYCNKDGAYDAYSYDYWGQGTQVTVSS | low polyreactivity
QVQLVESGGGLVQAGGSLRLSCAASGFTFRGYTMGWYRQAPGKERELVAAITRSGTTTYYADSVKGRFTISRDNAKNTVYLQMNSLKPEDTAVYYCATAKFYRQYGYWGQGTQVTVSS | high polyreactivity
QVQLVESGGGLVQAGGILRLSCAASGSIFDFYAMGWYRQAPGKERELVAAISGSGGSTYYADSVKGRFTISRDNAKNTVYLQMNSLKPEDTAVYYCSYYYWGQGTQVTVSS | low polyreactivity
QVQLVESGGGLVQAGGSLRLSCAASGSTFPVNAMGWYRQAPGKERELVATIRWTGGGTYYADSVKGRFTISRDNAKNTVYLQMNSLKPEDTAVYYCAADPPWEWSDYGYDYWGQGTQVTVSS | low polyreactivity
QVQLVESGGSLLQAGCSLRLSCAASGFIIAWYAMGWSRQAPGKEWELVAAISLSGGSTRYADSVKGRFTISRDNAKNPVYLQMNCLKPEDTAVYYCNVDRWASTEYDYWGQGTQVTVSS | low polyreactivity
QVQLVESGGGLVQAGGSLRLSCAASGSIFGLNAMGWYRQAPGKERELVARISTGSSTNYADSVKGRFTISRDNAKNTVYLQMNSLKPEDTAVYYCAADVDGGRHYGYWGQGTQVTVSS | low polyreactivity
QVQLVESGGGLVQAGGSLRLSCAASGSNFETYVMGWYRQAPGKERELFAAINSGGSTNYADSVKGRFTISRDNAKNTVYLQMNSLKPEETAVYYCNADWFTPAQPWYRYFIRYDYWGQGSQVTVSS | low polyreactivity
QVQLVESGGGLVQAGGSLRLSCAASGRIFYYYAMGWYRQAPGKERELVAAISSSGGSTYYADSVKGRYTISRDNAKNTVYLQMNSLKPEDTAVYYCNARTRYDMGYWGQGTQVTVSS | high polyreactivity
QVQLVESGGGLVQAGGSLRLSCAASGSTLHSYAMGWYRQAPGKERELVAAISFRGGSTYADSVKGRFTISRDNAKNTVYLQMNSLKPEDTAVYYCAAYSLYTMYWGQGTQVTVSS | low polyreactivity
QVQLVESGGGLVEAGGSLRLSCAASGSTFGVNAMGWSRQAPGKERELVAVITRSGGSTYYADSVKGRFTISRDNAKNTVYLQMNSLKPEDTAVYYCAKSGVVDWGQGTQVTVSS | low polyreactivity
QVQLQGSGGGLVQAGGSLRLSCAASGYIFQNVPMGWNRQAPGKERELVAGIDNGTSTNYADSVNGRFTISRDNAKKTVYLQMNSLKPEDTAVYYCAAAGQADNTLGYWGQGTQVTVSS | low polyreactivity
QVQLVESGGGLVQAGGRLRLSCAASGFIFAKYAMGWYRQAPGKERELVAAITSSGVSTYYADSVKGRFTISRDNAKNTVYLQMNSLKPADTAVYYCNARERYSYWGQGTQVTVSS | high polyreactivity

Sequence | polyreactivity (PSR sort gate)
QVQLVESGGGLVQAGGSLRLSCAASGRISVFNAMGWYRQAPGKDRELVAAITNGGSTNYADSVKVRFTISRDNAKNTVYLLMNSLKPEDTAVYDCAASVGTYAYGRTVYRYDYWGQGTQVTVSS | low polyreactivity
QVQLVESGGGLVQAGGSLRISCAASGITLNVYAMGWYRQAPGKERELVAAISYNGGRTYYADSVKGRFTISRDNAKNTVYLQMNSLKPEDTAVYYCAAQWPWGPYDYWGQGTQVTVSS | high polyreactivity
QVQLVESGGGLVQAGGSLRLSCAASGRIFHYNAMGWYRQAPAKERELVAAINRSGGTTNYADSVKGRFTISRDTAKNTVYLEMNSLIPEDTAVYYCNATLPDYWPYYYYLGGDDYWGQGTQVTVSS | low polyreactivity
QVQLVESGGGLVQAGGSLRLSCAASGSTFGGYAMGWYRQAPGKERELVADIDSIGGSTYYADSVKGRFTISRDNAKNTVYLQMNSLKPEDTAVYYCAARRFDTALVLYDYWGQGTQVTVSS | low polyreactivity
QVHLVESGGGLVQAGGSLRLSCAASGRIFGFYAMALYRQSPGKEREFVASISVRGASTYADSVKGRFTISRDNAKNTVYLQMNSLKPEDTAVYYCNAYGRVSKRYGYWGQGTQVTVSS | high polyreactivity
QVQLHESGGGLVQAGGSLRLSCAAIGTISYSGPMGWYRQAPGKEREFVAGIGVGSNTNYADSVKGRYTIIRDNAKNTVYLQMNSLKPEDSAVYYCAVGGYAPLGRPYWGQGTQVTVSS | low polyreactivity
QVQLVESGGGLVQAGGSLRLSCAASGFTFVSYAMGWSRQAPGKERELVATITSDGSTNYADSVKGRFTISRDNAKNTVYLQMNSLKPEDTAVYYCAADIHYYPGYLAYDYWGQGTQVTVSS | low polyreactivity
QVQLVESGGALVQAGGSLRLNCAASGRTFGYNAMGWYRQAPGKERELVAAITIGGSTNYADSVKWRFTISRDNAKNNGYLQMNSLLPEDTAVYYCAAYDTLLYWVEFYYWGQGTQVTVSS | low polyreactivity
QVQLVESGGGLVQAGGSLRLSCAASGSIFGYYTIGWYRQAPGKEREFVAAITQSGGSTYYADSVKGRFTISRDNAKNTVYLQMNSLKPEDTAVYYCAKQGYLKWGGTGDYWGQGTQVTVSS | high polyreactivity
QVQLVESGAGVVQAGGSLRLSCAASGSTFYRYAMGWYRQAPGKERELVATITNSGGSTYYADSVKGRFTISRDNAKNTVYLQMNSLKPEDTAVYYCARVRSRNTGYYYWGQGTQVTVSS | high polyreactivity
QVQLVESGGGLVQAGGSLRLSCAASGYIYIVYSMGWYRQAPVKERELVAAISSGGITDYADSVKGRFTISRDNAKNTVYLQMNSLKPEDTAVYYWGQGTQVTVSA | low polyreactivity
QVQLVESGGGLVQAGGSLRLSCAASGGIFGSYAMAWYRQAPGKERELVAAISWTGGSTYYADSVKGRFTISRDNAKNTVYLQMNSLKPEDTAVYYCNADTYRRAQLRFNSWGQGTQVTVSS | low polyreactivity
QVQLVESGGGLVQAGGSLRLSCAASGRIFSRNAMGWYRQAPGKEWELVARITVTVGSTYYADSVKGRFTISRDNAKNTVYLQMNSLKPEDTAVYYCAADAGYRYDCPYNYYYWGQGTQVTVSS | low polyreactivity
QVQLVESGGGLVQAGGSLRLSCAASGRTFRLNAMGWYRQAPGKERELVARITGSSGGSTYYADSVKGRFTISRDNAKNTVYLQMNSLKPEDTAVYYCNKRVGFLYKYDYWGQGTQVTVSS | high polyreactivity
QVQLVESGGGLVQAGGSLRLSCAASGRIFRWYAMGWYRQAPGKERELVAAISSSGGSTYYADSVKGRFTISRDNAKINVYLQMKSLKPEDTAVYYCNAEAVAYWSVPYNYWGQGTQVTVSS | high polyreactivity
QVQLVESGGGLVQAGGSLRLSCAASGRIFYSYAMGGYRQAPGQERELVAAIDESDGSTYYADSVKGRFTISRDNATNTVYLQLNSLKPDDTAVYYSAADSLLVLFDYWGQGTQVTVSS | low polyreactivity
QVQLAESGGGFVQAGGTLRLTCAASGSIFTSNAMGWFRQAPGKERELVAPSSWRGTSTYYADSVKGRYTISRDNAKTTVYLQMNSLKPVDTAVYYCAKYRRFRPYGSNGIYDYWGQGTQVTVSS | high polyreactivity
QVQLVESGGGLVQAGGSLRLSCAPSGITLVRYAMGWYRQAPGKERELVAAISSSGGSTYYADSVKGRFTISRDNAMNPVYLQMNSLKPEDTAVYYCAKRLYYGDPPTYDYWGQGTQVTVSS | high polyreactivity
QVQLVESGGGLVQAGGSLRLSCAASGRTFNYSAMGWYRQAPGTERELVAAISSSGGRTYYADSVKGRFTISRDNAKITVYLQMNSLKPEDTAVYYCAADSFYYRPEYDYWGQGTQVTVSS | low polyreactivity
QVQLQESAGGLVQAGGSLRLRCSASGYISCDASMGWYRQAAGKERELAASITKGSSTNYADSVKGRFTIRDNAKNTVYLQMNSLKPEDTAVCYCAVTYPYWGDYTYWGQGTQVTVSS | low polyreactivity
